Data published in patent US20220143148A1, “COMPOSITIONS AND METHODS FOR MODULATING CGRP SIGNALING TO REGULATE INTESTINAL INNATE LYMPHOID CELLS” (The Broad Institute, Inc., priority 2019, published 2022).

Test system: small intestinal immune cells
Assay: Droplet-based scRNA-seq of small intestinal immune cells (LP and PP), OVA vs PBS, clustering and differential expression
Type: in vivo, mouse
Settings: PP
Excerpt: To comprehensively characterize small intestinal immune cells, Applicants generated scRNA-Seq profiles for 58,067 immune cells collected from lamina propria (LP) and Peyer's patch (PP) regions at steady state and after induction of a type 2 inflammatory reaction to ovalbumin (OVA) (Brandt et al., 2003) (FIGS. 1A and 8A). To ensure sufficient representation of rare cells, Applicants combined a normalization strategy—removing by flow sorting either a portion of IgD+ naïve B cells, which are the most abundant cell type in PPs, or all CD19+ and CD3+ T cells (FIG. 8B, Methods)—with profiling of a sufficiently large number of cells number (P>0.99 to recover at least 15 cells from each cluster, Methods) by massively parallel scRNA-seq (Haber et al., 2017) (Methods). Applicants obtained 36,797 and 21,270 high quality cells passing initial filtering (Methods) from PP and LP regions, respectively.
Overall, Applicants annotated 27 cell subsets across the two compartments, spanning T cells, B cells, ILCs, dendritic cells (DCs), myeloid cells and stromal cells, in frequencies ranging from 0.07% to 14%. Briefly, Applicants first partitioned the cells from the PP regions by unsupervised clustering (Methods) into 46 clusters, retained the 97% of cells that were robustly assigned cell identities in each cluster (Methods), assigned the cells from the LP regions to the 46 clusters using a classifier (Methods), and visualized the data with scvis (Ding et al., 2018), a deep generative model-based method (FIGS. 1B and 8C, Methods). Next, Applicants identified genes that were differentially expressed between the cells in each cluster and the remaining cells (Table 1, Methods), as well as between pairs of clusters (Table 2), to elucidate identities of similar cell types/states. Applicants excluded from downstream analysis clusters mostly consisting of contaminants from epithelium, likely doublets, or cells with a small number of Unique Molecular Identifiers (UMIs) (FIGS. 1C and 8D), or lacking distinct markers (Methods). Altogether, Applicants retained 27 clusters spanning 85% of the cells and each associated with distinct marker genes (FIG. 8E, Methods).
To induce allergic reaction to OVA, 6 to 7 weeks old mice were sensitized twice, two weeks apart, with 50 μg of OVA plus 1 mg of aluminum potassium sulfate adjuvant via intraperitoneal injection. Two weeks later, mice were orally administered with 50 mg of OVA on every other day for a total of five times. 1 μg of α-CGRP peptide was administered simultaneously when indicated. Mice were deprived of food for 3-4 hours in cages with wood chip bedding for limiting antigen degradation in the stomach before each intragastric challenge.
Isolation of cells from Peyer's patches (PPs). Peyer's patches (PPs) were carefully dissected from the small intestine under a stereo microscope using a fine scissor, pierced once with a fine forcep. Tissues were digested in freshly made digestion buffer (RPMI-1640 containing 100 μg/ml Liberase™ and 50 μg/ml DNase I at 37° C. on a roto-mixer. After 15 min, tissues were very gently mixed using a 1 ml pipette. The supernatant was collected and added to ice-cold MACS buffer (pH 7.4; PBS plus 2% FCS and 2 mM EDTA). Pre-warmed (37° C.) fresh digestion buffer was added to the remaining tissues. After rotation at 37° C. for 15 min, the mixture was vigorously mixed using a 1 ml pipette for 1 min. Supernatants from the two steps were combined and passed through 70 μm filters and stained for FACS (below).
Isolation of cells from the lamina propria (LP). The small intestines were opened longitudinally and washed in ice-cold PBS. For scRNA-seq, roughly 0.5 cm of fragments from each of the distal, middle and proximal regions without visible PPs were collected. Epithelial cells were dissociated by tissue rotation in pre-warmed (37° C.) PBS containing 10 mM EDTA at 37° C. for 15 min, followed by additional incubation on ice for 15 min. Tissues were then shaken vigorously. […]

B1: OVA (protein, UniProt P01012 2-386, looked up)
Ovalbumin: GSIGAASMEFCFDVFKELKVHHANENIFYCPIAIMSALAMVYLGAKDSTRTQINKVVRFDKLPGFGDSIEAQCGTSVNVHSSLRDILNQITKPNDVYSFSLASRLYAEERYPILPEYLQCVKELYRGGLEPINFQTAADQARELINSWVESQTNGIIRNVLQPSSVDSQTAMVLVNAIVFKGLWEKAFKDEDTQAMPFRVTEQESKPVQMMYQIGLFRVASMASEKMKILELPFASGTMSMLVLLPDEVSGLEQLESIINFEKLTEWTSSNVMEERKIKVYLPRMKMEEKYNLTSVLMAMGITDVFSSSANLSGISSAESLKISQAVHAAHAEINEAGREVVGSAEAGVDAASVSEEFRADHPFLFCIKHIATNAVLFFGRCVSP
Cluster ID 6, OVA vs PBS
  Snrnp70 LN (average fold change): 0.220
  Tmem50a LN (average fold change): 0.153
  Tmem59 LN (average fold change): 0.179
  Tmem86a LN (average fold change): 0.323
  Tsix LN (average fold change): −0.418
  Txndc5 LN (average fold change): 0.226
Cluster ID 7
  Ddit4 percentage of expressing cells in OVA-treated group: 0.359
  Dusp2 percentage of expressing cells in OVA-treated group: 0.465
  Fkbp5 percentage of expressing cells in OVA-treated group: 0.167
  Gabarapl2 percentage of expressing cells in OVA-treated group: 0.643
  Hsp90ab1 percentage of expressing cells in OVA-treated group: 0.834
  Il7r percentage of expressing cells in OVA-treated group: 0.191
  Lmo4 percentage of expressing cells in OVA-treated group: 0.204
  Matk percentage of expressing cells in OVA-treated group: 0.284
  Ptpn22 percentage of expressing cells in OVA-treated group: 0.53
  Svbp percentage of expressing cells in OVA-treated group: 0.246
  Tsc22d3 percentage of expressing cells in OVA-treated group: 0.565
  Txnip percentage of expressing cells in OVA-treated group: 0.415
  Zfp36l2 percentage of expressing cells in OVA-treated group: 0.757
Cluster ID 7, OVA vs PBS
  Ddit4 LN (average fold change): 0.463
  Dusp2 LN (average fold change): 0.542
  Fkbp5 LN (average fold change): 0.540
  Gabarapl2 LN (average fold change): 0.253
  Hsp90ab1 LN (average fold change): −0.450
  Il7r LN (average fold change): 0.526
  Lmo4 LN (average fold change): 0.711
  Matk LN (average fold change): 0.513
  Ptpn22 LN (average fold change): 0.340
  Svbp LN (average fold change): 0.261
  Tsc22d3 LN (average fold change): 1.003
  Txnip LN (average fold change): 0.551
  Zfp36l2 LN (average fold change): 1.239
Cluster ID 8
  AW112010 percentage of expressing cells in OVA-treated group: 0.995
  AY036118 percentage of expressing cells in OVA-treated group: 0.431
  Actr3 percentage of expressing cells in OVA-treated group: 0.771
  Alyref percentage of expressing cells in OVA-treated group: 0.137
  Amd1 percentage of expressing cells in OVA-treated group: 0.265
  Arf4 percentage of expressing cells in OVA-treated group: 0.478
  Arfrp1 percentage of expressing cells in OVA-treated group: 0.21
  Arl6ip1 percentage of expressing cells in OVA-treated group: 0.61
  Arl6ip5 percentage of expressing cells in OVA-treated group: 0.618
  Arpc5l percentage of expressing cells in OVA-treated group: 0.381
  Arrb2 percentage of expressing cells in OVA-treated group: 0.32
  Ash1l percentage of expressing cells in OVA-treated group: 0.235
  B2m percentage of expressing cells in OVA-treated group: 0.999
  Bcl2a1b percentage of expressing cells in OVA-treated group: 0.151
  Bcl2l11 percentage of expressing cells in OVA-treated group: 0.383
  Bcl2 percentage of expressing cells in OVA-treated group: 0.839
  Bhlhe40 percentage of expressing cells in OVA-treated group: 0.571
  Cap1 percentage of expressing cells in OVA-treated group: 0.695
  Ccr2 percentage of expressing cells in OVA-treated group: 0.536
  Cd47 percentage of expressing cells in OVA-treated group: 0.833
  Cd69 percentage of expressing cells in OVA-treated group: 0.306
  Cd74 percentage of expressing cells in OVA-treated group: 0.448
  Cdk2ap1 percentage of expressing cells in OVA-treated group: 0.132
  Cdkn1a percentage of expressing cells in OVA-treated group: 0.084
  Cdv3 percentage of expressing cells in OVA-treated group: 0.255
  Cks2 percentage of expressing cells in OVA-treated group: 0.108
  Clec2d percentage of expressing cells in OVA-treated group: 0.289
  Coq10b percentage of expressing cells in OVA-treated group: 0.305
  Crem percentage of expressing cells in OVA-treated group: 0.371
  Csrp1 percentage of expressing cells in OVA-treated group: 0.129
  Ctla2a percentage of expressing cells in OVA-treated group: 0.74
  Cxcr4 percentage of expressing cells in OVA-treated group: 0.577
  Ddx21 percentage of expressing cells in OVA-treated group: 0.248
  Defa24 percentage of expressing cells in OVA-treated group: 0.044
  Dgat1 percentage of expressing cells in OVA-treated group: 0.175
  Dusp1 percentage of expressing cells in OVA-treated group: 0.614
  Eef2 percentage of expressing cells in OVA-treated group: 0.957
  Egr1 percentage of expressing cells in OVA-treated group: 0.156
  Eif4a2 percentage of expressing cells in OVA-treated group: 0.622
  Emb percentage of expressing cells in OVA-treated group: 0.506
  Fam105a percentage of expressing cells in OVA-treated group: 0.376
  Fasl percentage of expressing cells in OVA-treated group: 0.598
  Fcer1g percentage of expressing cells in OVA-treated group: 0.927
